Test results: patent US20060286112A1

Biological target: human VLA-1 (alpha 1/beta 1, CD49a/CD29) on IL-2 stimulated human PBMC / T cells (human) (UniProt P56199)
Test: cell-based or functional assay

- % adhesion of IL-2 activated T cells to collagen IV vs no antibody, 10 µg/ml, +PMA: 109%
- % adhesion of IL-2 activated T cells to collagen IV vs no antibody, 10 µg/ml, -PMA: 106%
- % adhesion of T cells to collagen IV vs no antibody, 5 nM mAb, 10 ng/ml PMA: 95.6%
- % adhesion of T cells to collagen IV vs no antibody, 5 nM mAb, no PMA: 9.5%
Substance: Hu IgG4 (antibody)
